Measured values from patent US5932432.

What was measured:
[1] = target: yeast RAS1 protein with the carboxy-terminal sequence CAIM (yeast) (UniProt P01119)
[2] = target: yeast RAS1 protein with the carboxy-terminal sequence CAIL (yeast) (UniProt P01119)

Question: What does the source list for “farnesyl:protein transferase (FTase) present in a tobacco protein extract (enzyme)”?
Answer: lowest protein concentration detected by radiolabeling protein blots with [3H]FPP (in vitro farnesylation, fluorography) [1]: 0.12 mmol m^-2; lowest protein concentration detected by radiolabeling protein blots with [3H]FPP (in vitro farnesylation, fluorography) [2]: < 12
